Measured values: article PMC9482650, “Quantitative fragmentomics allow affinity mapping of interactomes” (Nature Communications, 2022)

T1: PTPN13_1, Q12923
T1 sequence (Q12923 1088-1188, limits assumed, looked up): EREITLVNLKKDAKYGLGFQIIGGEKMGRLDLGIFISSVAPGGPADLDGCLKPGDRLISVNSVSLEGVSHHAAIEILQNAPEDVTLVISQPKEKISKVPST

T2: LNX2_2, Q8N448
T2 sequence (Q8N448 334-432, limits assumed, looked up): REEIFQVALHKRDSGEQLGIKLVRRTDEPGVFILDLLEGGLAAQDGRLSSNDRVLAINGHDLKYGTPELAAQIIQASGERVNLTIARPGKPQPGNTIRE

T3: PDZD7_3, Q9H5P4
T3 sequence (Q9H5P4 857-944, limits assumed, looked up): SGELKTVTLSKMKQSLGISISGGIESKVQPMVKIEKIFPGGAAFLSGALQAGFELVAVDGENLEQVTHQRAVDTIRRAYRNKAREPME

T4: GRIP1_5, Q9Y3R0
T4 sequence (Q9Y3R0 568-668, limits assumed, looked up): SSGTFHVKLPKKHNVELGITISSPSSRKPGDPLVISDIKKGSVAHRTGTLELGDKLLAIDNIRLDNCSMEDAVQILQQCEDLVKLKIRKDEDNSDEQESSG

T5: NHERF3_4, Q5T2W1
T5 sequence (Q5T2W1 373-468, limits assumed, looked up): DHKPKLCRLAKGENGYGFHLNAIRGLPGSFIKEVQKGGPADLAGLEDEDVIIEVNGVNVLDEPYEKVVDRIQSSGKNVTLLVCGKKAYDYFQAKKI

T6: MPDZ_12, O75970
T6 sequence (O75970 1857-1958, limits assumed, looked up): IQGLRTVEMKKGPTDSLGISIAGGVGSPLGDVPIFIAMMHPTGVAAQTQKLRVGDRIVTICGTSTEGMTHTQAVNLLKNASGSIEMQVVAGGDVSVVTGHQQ

T7: APBA3_1, O96018
T7 sequence (O96018 389-490, limits assumed, looked up): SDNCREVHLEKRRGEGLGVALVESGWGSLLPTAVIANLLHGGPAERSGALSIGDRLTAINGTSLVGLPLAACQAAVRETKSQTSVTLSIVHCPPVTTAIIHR

T8: HTRA4, P83105
T8 sequence (P83105 378-476, limits assumed, looked up): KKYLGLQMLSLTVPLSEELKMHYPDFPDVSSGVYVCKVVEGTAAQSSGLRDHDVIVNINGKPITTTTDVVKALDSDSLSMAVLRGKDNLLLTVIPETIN

T9: RAPGEF6, Q8TEU7
T9 sequence (Q8TEU7 525-625, limits assumed, looked up): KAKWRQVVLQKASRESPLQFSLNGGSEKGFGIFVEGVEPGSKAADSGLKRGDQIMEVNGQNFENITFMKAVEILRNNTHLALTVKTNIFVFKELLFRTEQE

T10: APBA2_2, Q99767
T10 sequence (Q99767 654-744, limits assumed, looked up): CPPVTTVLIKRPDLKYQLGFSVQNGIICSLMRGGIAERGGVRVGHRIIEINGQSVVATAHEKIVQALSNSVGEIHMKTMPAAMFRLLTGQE

T11: SHANK1, Q9Y566
T11 sequence (Q9Y566 658-767, limits assumed, looked up): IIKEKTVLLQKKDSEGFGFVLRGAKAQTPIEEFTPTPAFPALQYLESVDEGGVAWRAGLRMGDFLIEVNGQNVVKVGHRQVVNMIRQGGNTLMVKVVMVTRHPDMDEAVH


Columns and labels:
Assay in all cases: holdup assay
Design in all cases: key: below the threshold = too weak to quantify, mostly under pKd 3.1 to 4
Conditions in all cases: plain residues with an end cap or a label only (N-terminal biotin on a linker: ado-ado)
MAGI2_5, Q86UL8 = biological target: MAGI2_5, Q86UL8
Chain of MAGI2_5, Q86UL8 (Q86UL8 915-1017): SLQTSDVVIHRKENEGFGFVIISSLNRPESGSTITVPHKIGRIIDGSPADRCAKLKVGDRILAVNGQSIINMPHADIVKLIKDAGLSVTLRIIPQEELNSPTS

DLG2_2, Q15700 = biological target: DLG2_2, Q15700
Chain of DLG2_2, Q15700 (Q15700 189-283): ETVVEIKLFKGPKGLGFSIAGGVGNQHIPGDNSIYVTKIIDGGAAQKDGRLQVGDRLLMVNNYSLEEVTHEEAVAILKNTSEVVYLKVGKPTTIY

PTPN13_1, Q12923 = biological target: T1, PTPN13_1, Q12923
LNX2_2, Q8N448 = biological target: T2, LNX2_2, Q8N448
FRMPD4, Q14CM0 = biological target: FRMPD4, Q14CM0
Chain of FRMPD4, Q14CM0 (Q14CM0 67-160): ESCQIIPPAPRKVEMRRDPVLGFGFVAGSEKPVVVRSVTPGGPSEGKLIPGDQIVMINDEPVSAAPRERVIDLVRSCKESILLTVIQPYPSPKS

Inadl_3, Q8NI35 = biological target: Inadl_3, Q8NI35
Chain of Inadl_3, Q8NI35 (Q8NI35 359-469): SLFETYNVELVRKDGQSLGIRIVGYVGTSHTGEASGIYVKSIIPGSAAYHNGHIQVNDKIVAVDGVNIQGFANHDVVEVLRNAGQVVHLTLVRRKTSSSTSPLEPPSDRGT

Inadl_9, Q8NI35 = biological target: Inadl_9, Q8NI35
Chain of Inadl_9, Q8NI35 (Q8NI35 1530-1615): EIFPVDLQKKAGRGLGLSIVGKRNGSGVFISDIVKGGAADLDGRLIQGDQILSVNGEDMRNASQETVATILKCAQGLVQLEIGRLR

PDZD7_3, Q9H5P4 = biological target: T3, PDZD7_3, Q9H5P4
GRIP1_5, Q9Y3R0 = biological target: T4, GRIP1_5, Q9Y3R0
NHERF3_4, Q5T2W1 = biological target: T5, NHERF3_4, Q5T2W1
DLG1_1, Q12959 = biological target: DLG1_1, Q12959
LNX1_1, Q8TBB1 = biological target: LNX1_1, Q8TBB1
Chain of LNX1_1, Q8TBB1 (Q8TBB1 261-371): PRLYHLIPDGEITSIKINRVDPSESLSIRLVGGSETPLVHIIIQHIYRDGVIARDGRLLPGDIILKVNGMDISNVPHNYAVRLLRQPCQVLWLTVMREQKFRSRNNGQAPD

Inadl_1, Q8NI35 = biological target: Inadl_1, Q8NI35
Chain of Inadl_1, Q8NI35 (Q8NI35 113-229): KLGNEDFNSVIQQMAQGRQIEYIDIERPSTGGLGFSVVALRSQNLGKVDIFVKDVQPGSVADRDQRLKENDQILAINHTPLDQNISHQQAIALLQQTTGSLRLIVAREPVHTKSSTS

LNX1_2, Q8TBB1 = biological target: LNX1_2, Q8TBB1
Chain of LNX1_2, Q8TBB1 (Q8TBB1 371-470): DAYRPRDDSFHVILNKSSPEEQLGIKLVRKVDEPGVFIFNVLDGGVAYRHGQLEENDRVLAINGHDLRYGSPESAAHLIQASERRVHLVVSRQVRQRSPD

LIMK2, P53671 = biological target: LIMK2, P53671
Chain of LIMK2, P53671 (P53671 143-248): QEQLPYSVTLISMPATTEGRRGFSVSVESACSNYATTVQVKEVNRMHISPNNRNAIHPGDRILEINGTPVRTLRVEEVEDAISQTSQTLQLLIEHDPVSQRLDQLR

MPDZ_12, O75970 = biological target: T6, MPDZ_12, O75970
MAGI2_6, Q86UL8 = biological target: MAGI2_6, Q86UL8
Chain of MAGI2_6, Q86UL8 (Q86UL8 1141-1229): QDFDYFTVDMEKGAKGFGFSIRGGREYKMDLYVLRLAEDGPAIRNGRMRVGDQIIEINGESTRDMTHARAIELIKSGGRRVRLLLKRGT

APBA3_1, O96018 = biological target: T7, APBA3_1, O96018
DLG4_3, P78352 = biological target: DLG4_3, P78352
Chain of DLG4_3, P78352 (P78352 306-403): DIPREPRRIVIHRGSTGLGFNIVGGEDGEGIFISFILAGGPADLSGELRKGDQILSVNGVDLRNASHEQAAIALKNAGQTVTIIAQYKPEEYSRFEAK

HTRA4, P83105 = biological target: T8, HTRA4, P83105
RAPGEF6, Q8TEU7 = biological target: T9, RAPGEF6, Q8TEU7
DLG4_2, P78352 = biological target: DLG4_2, P78352
Chain of DLG4_2, P78352 (P78352 155-259): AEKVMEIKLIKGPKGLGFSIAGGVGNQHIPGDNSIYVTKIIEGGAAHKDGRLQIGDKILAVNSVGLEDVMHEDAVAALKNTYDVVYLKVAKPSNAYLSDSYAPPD

APBA2_2, Q99767 = biological target: T10, APBA2_2, Q99767
SHANK1, Q9Y566 = biological target: T11, SHANK1, Q9Y566
AHNAK1, Q09666 = biological target: AHNAK1, Q09666
Chain of AHNAK1, Q09666 (Q09666 4-100): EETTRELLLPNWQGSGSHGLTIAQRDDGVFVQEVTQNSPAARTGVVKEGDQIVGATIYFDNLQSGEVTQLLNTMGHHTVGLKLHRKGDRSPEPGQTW

PDZRN4_1, Q6ZMN7 = biological target: PDZRN4_1, Q6ZMN7
Chain of PDZRN4_1, Q6ZMN7 (Q6ZMN7 213-318): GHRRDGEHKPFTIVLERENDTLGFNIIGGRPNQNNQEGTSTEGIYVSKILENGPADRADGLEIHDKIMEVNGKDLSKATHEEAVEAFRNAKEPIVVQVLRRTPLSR

PTPN3, P26045 = biological target: PTPN3, P26045
Chain of PTPN3, P26045 (P26045 505-587): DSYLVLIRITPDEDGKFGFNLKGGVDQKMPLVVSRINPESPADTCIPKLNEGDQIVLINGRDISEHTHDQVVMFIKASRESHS

| Binder | pKd (MAGI2_5, Q86UL8) | pKd (DLG2_2, Q15700) | pKd (PTPN13_1, Q12923) | pKd (LNX2_2, Q8N448) | pKd (FRMPD4, Q14CM0) | pKd (Inadl_3, Q8NI35) | pKd (Inadl_9, Q8NI35) | pKd (PDZD7_3, Q9H5P4) | pKd (GRIP1_5, Q9Y3R0) | pKd (NHERF3_4, Q5T2W1) | pKd (DLG1_1, Q12959) | pKd (LNX1_1, Q8TBB1) | pKd (Inadl_1, Q8NI35) | pKd (LNX1_2, Q8TBB1) | pKd (LIMK2, P53671) | pKd (MPDZ_12, O75970) | pKd (MAGI2_6, Q86UL8) | pKd (APBA3_1, O96018) | pKd (DLG4_3, P78352) | pKd (HTRA4, P83105) | other results |
| --- | --- | --- | --- | --- | --- | --- | --- | --- | --- | --- | --- | --- | --- | --- | --- | --- | --- | --- | --- | --- | --- |
| NTANRRTTPV [CACNG2, Q9Y698] | below the threshold | 4.53 | below the threshold | below the threshold | below the threshold | below the threshold | below the threshold | 4.19 | below the threshold | 3.5 | 4.34 | below the threshold | below the threshold | below the threshold | below the threshold | below the threshold | 3.53 | below the threshold | 4.69 | below the threshold | pKd (RAPGEF6, Q8TEU7): below the threshold; pKd (DLG4_2, P78352): 4.89; pKd (APBA2_2, Q99767): below the threshold; pKd (SHANK1, Q9Y566): below the threshold; pKd (AHNAK1, Q09666): below the threshold; pKd (PDZRN4_1, Q6ZMN7): below the threshold; pKd (PTPN3, P26045): 4.52 |
| NTLNRKTTPV [CACNG8, Q8WXS5] | below the threshold | 4.61 | below the threshold | below the threshold | below the threshold | below the threshold | below the threshold | 4.56 | 3.48 | 3.66 | 4.32 | 3.66 | below the threshold | below the threshold | below the threshold | below the threshold | below the threshold | below the threshold | 4.89 | 3.94 | pKd (RAPGEF6, Q8TEU7): below the threshold; pKd (DLG4_2, P78352): 4.94; pKd (APBA2_2, Q99767): below the threshold; pKd (SHANK1, Q9Y566): below the threshold; pKd (AHNAK1, Q09666): below the threshold; pKd (PDZRN4_1, Q6ZMN7): 3.63; pKd (PTPN3, P26045): 4.98 |
